Results published in the supplement of paper PMC11865577.

What was measured:
Assay in all cases: pull-down binding Z-score (relative to library population); higher = stronger binding
Conditions in all cases: RNA library: Library-2
[1] = test system: TO-3-N3 (biotin conjugate)
How it was run: (§1)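 Streptavidin beads bearing 100 pmol of a biotin-conjugated small molecule were incubated for 60 min at 25 °C with 1 μg of heat-folded, Cy5- or Cy3-end-labelled RNA library in phosphate/NaCl/KCl buffer. Hot SDS eluted the RNA that stayed bound after three washes, and this RNA was hybridised for 20 h at 55.5 °C to a DNA barcode microarray. Binding was expressed as a Z-score against the library mean and standard deviation, after subtraction of a beads-only signal and trimmed averaging of barcoded replicate probes.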

[2] = test system: TO-3-N3-2 (biotin conjugate)
How it was run: as §1

TO-N3 (biotin conjugate) = test system: TO-N3 (biotin conjugate)
How it was run: as §1

[3] = test system: TO-N3-2 (biotin conjugate)
How it was run: as §1

Sequence | pull-down binding Z-score [1] | pull-down binding Z-score [2] | pull-down binding Z-score (TO-N3 (biotin conjugate)) | pull-down binding Z-score [3]
GUUCUUGUAUGUGAGAAC [IAV_invivo_PA_3_Motif_23+IAV_invivo_PA_3_Motif_23] | -0.598 | -0.614 | -0.949 | -1.09
GUUCUUUGAGAAC [IAV_invivo_PA_3_Motif_25+IAV_invivo_PA_3_Motif_25] | 0.296 | -0.317 | 0.0597 | -0.894
GUUGAAGAAGUUACAAC | 0.355 | 0.148 | 0.365 | -0.168
GUUGAAGUUGUUGAUAAGUACUUUGAUUGUUACGAUGGUGGCUGUAUUAAUGCUAACCAAGUCAUCGUCAACAACCUAGACAAAUCAGCUGGUUUUCCAUUUAAU | -0.27 | -0.0144 | 0.0753 | 0.567
GUUGACAGGACACGAGUAACUCGUCUAUCUUCUGCAGGCUGCUUACGGUUUCGUCCGUGUUGCAGCCGAUCAUCAGC | -0.282 | -0.335 | 0.461 | 1.31
GUUGAUGAGCCUGAAGAACAUGUCCAAAUUCACACAAUCGACGGUUCAUCCGGAGUUGUUAAUCCAGUAAUGGAACCAAUUUAUGAUGAACCGACGACGAC | 0.104 | -0.311 | 0.862 | 0.77
GUUGAUUUUUGUGGAAAGGGCUAUCAUCUUAUGUCCUUCCCUCAGUCAGC [SHAPE_invitro_SARS-CoV-2_Motif_447] | -1.02 | -0.325 | -1.18 | -0.89
GUUGCGUCACCAAAUGAAUGCAAC | -0.989 | -0.49 | -1.3 | -1.2
GUUGCUGUACCUACAGGUUAUGUUGAUACACCUAAUAAUACAGAUUUUUCCAGAGUUAGUGCUAAACCACCGCCUGGAGAUCAAU [SHAPE_invitro_SARS-CoV-2_Multi_51_ComplexLevel_1] | 0.475 | -0.139 | 0.691 | 0.329
GUUGGAUAAUGAUGCACUCAACAACAUUAUCAAC | -0.974 | -0.75 | -1.35 | -0.9
GUUGUAGACGGUUGUAAUUCAUCAACUUGUAUGAUGUGUUACAAACGUAAUAGAGC [SHAPE_invivo_SARS-CoV-2_Motif_153] | -0.547 | -0.153 | -0.562 | -0.564
GUUGUAGACGGUUGUAAUUCAUCAACUUGUAUGAUGUGUUACAAACGUAAUAGAGCAAC | -0.88 | -0.529 | -0.954 | -0.288
GUUGUCGCUUCCAAGAAAAGGACGAAGAUGACAAU [SHAPE_invitro_SARS-CoV-2_Motif_248] | 0.276 | 0.224 | 0.141 | 0.292
GUUGUCUUGAAAACUGGUGAUUUACAACCAUUAGAACAACCUACUAGUGAAGCUGUUGAAGCUCCAUUGGUUGGUACACCAGUUUGUAUUAAC | -0.52 | -0.367 | -0.376 | -0.384
GUUGUCUUUGAUGAAAUUUCAAUGGCCAC [DMSMaPseq_invitro_SARS-CoV-2_Motif_310] | -0.693 | -0.29 | -0.615 | 0.376
GUUGUUACUCACAAUUUUGACUUCACUUUUAGUUUUAGUCCAGAGUACUCAAU | -0.826 | -0.324 | -0.965 | -0.924

Sequence | pull-down binding Z-score [1] | pull-down binding Z-score [2] | pull-down binding Z-score (TO-N3 (biotin conjugate)) | pull-down binding Z-score [3]
GUUUAAGGAAGGUGUAGAGUUUCUUAGAGAC | -0.375 | 0.179 | 0.119 | 0.726
GUUUACAACAGUAGAC | 0.0879 | -0.155 | -0.136 | -1.28
GUUUAUGAAAAACUCAAACCCGUCCUUGAUUGGCUUGAAGAGAAGUUUAAGGAAGGUGUAGAGUUUCUUAGAGAC | 0.121 | -0.241 | 0.416 | -0.0848
GUUUCGGAAGAGAC | -0.255 | -0.443 | -0.448 | -0.706
GUUUCUGCCUUUCCAACAAUUUGGCAGAGAC | -0.615 | -0.306 | -0.868 | -0.994
GUUUGUCUUAGUGGUUUAGAUUCUUUAGACACCUAUCCUUCUUUAGAAACUAUACAAAU | -0.000875 | 0.0248 | 0.0216 | -0.533
GUUUGUGUAUCUACUAGUGGUAGAUGGGUACUUAAC | -0.677 | -0.279 | -0.726 | -1.05
GUUUUAAUUAUGCUUAUUAUCUUUUGGUUCUCACUUGAACUGCAAGAUCAUAAUGAAAC | -0.212 | -0.144 | -0.503 | -1.02
GUUUUCUACAAAGAAAAC | -0.676 | -0.524 | -1.09 | -1.75
GUUUUUCUGUUUGGAACUUUAAUUUUAGCCAUGGCAGAUUCCAACGGUACUAUUACCGUUGAAGAGCUUAAAAAGCUCCUUGAAC | -0.86 | -0.23 | -0.856 | -0.41
GUUUUUGUACACAAUUAAACCGUGCUUUAACUGGAAUAGCUGUUGAACAAGACAAAAAC [DMSMaPseq_invitro_SARS-CoV-2_Motif_424] | 0.247 | -0.127 | 0.21 | -0.336
UAAAAUGAAUUAUCAAGUUA [DMSMaPseq_invitro_SARS-CoV-2_Motif_325] | -0.703 | -0.451 | -1.04 | -1.2
UAAACACGCUUGUUAAACAACUUAGCUCCAAUUUUGGUGCAAUUUCAAGUGUUUUA [SHAPE_invitro_SARS-CoV-2_Motif_443] | -0.82 | -0.221 | -0.925 | -0.333
UAAACCACCCAUUAGUUUUCCAUUGUGUGCUAAUGGACAAGUUUUUGGUUUA [SHAPE_invivo_SARS-CoV-2_Motif_310] | -0.757 | -0.357 | -1 | -1.35
UAAAGAACUUUAAGUCAGUUCUUUA | -0.827 | -0.501 | -1.25 | -1.19
